{"source": "patent US20120034672A1", "about": "“[…] LUCIFERASE VARIANT WITH PROLONGED BIOLUMINESCENCE” (priority 2009, published 2012)", "molecules": {"B1": {"name": "SimGR3: control probe: original GLuc dissected into two fragments with GR LBD and LXXLL motif inserted (protein)", "chain": "MKPTENNEDFNIVAVASNFATTDLDADRGKLPGKKLPLEVLKEMEANARKAGCTRGCLICLSHIKCTPKMKKFIPGRCHTYEGDKESAQGGGGGTQLTPTLVSLLEVIEPEVLYAGYDSSVPDSTWRIMTTLNMLGGRQVIAAVKWAKAIPGFRNLHLDDQMTLLQYSWMFLMAFALGWRSYRQSSANLLCFAPDLIINEQRMTLPCMYDQCKHMLYVSSELHRLQVSYEEYLCMKTLLLLSSVPKDGLKSQELFDEIRMTYIKELGKAIVKREGNSSQNWQRFYQLTKLLDSMHEVVENLLNYCFQTFLDKTMSIEFPEMLAEIITNQIPKYSNGNIKKLLFHQKVDGGNGGRNALLRYLLDKDGSGGGGIGEAIVDIPEIPGFKDLEPMEQFIAQVDLCVDCTTGCLKGLANVQCSDLLKKWLPQRCATFASKIQGQVDKIKGAGGDKDEL", "modifications": "SimGR3; an integrated molecule-format probe carrying an LXXLL motif and GLuc.", "notes": "control probe: original GLuc dissected into two fragments with GR LBD and LXXLL motif inserted"}}, "test_system": "stress hormone receptor (glucocorticoid receptor)", "assay": "Single-molecule-format bioluminescent probe response to stress hormone", "assay_type": "cell-based", "settings": "with/without stress hormone", "protocol": "In order to further examine the advantages of the highly-luminescent variants of the present invention, a single-molecule-format bioluminescent probe was synthesized based on this variant (FIG. 13). […] These probes were inserted into living cells, and the difference in the luminescence intensity was measured under conditions of presence and absence of […].\nFirst, a stress hormone receptor recognizes the stress hormone, and causes an alteration in the structure. As a result, the receptor binds to the adjacent LXXLL motif, which thereby causes recombination of the fragments of the dissected luciferase. At this time, the activity of the stress hormone can be measured using the reversed enzyme activity as the index.\nThe sensitivity of SimGR3, 8990N, and Mon3N prepared for this experiment to the stress hormone was measured (FIG. 13B)."}
{"molecule": "B1", "values": [{"measurement": "luminescence and stress hormone sensitivity with 610 nm long-pass filter", "value": "not significant enough to distinguish between the presence and absence of stress hormone"}]}
